# Changes are numbered by the printed parent chain. Names may count otherwise.
# T1: human IL-2 receptor (IL-2Rα, IL-2Rβ, IL-2Rγ) (human, UniProt P01589 22-272; P14784 27-551; P31785 23-369)
# T1 sequence (looked up) 1: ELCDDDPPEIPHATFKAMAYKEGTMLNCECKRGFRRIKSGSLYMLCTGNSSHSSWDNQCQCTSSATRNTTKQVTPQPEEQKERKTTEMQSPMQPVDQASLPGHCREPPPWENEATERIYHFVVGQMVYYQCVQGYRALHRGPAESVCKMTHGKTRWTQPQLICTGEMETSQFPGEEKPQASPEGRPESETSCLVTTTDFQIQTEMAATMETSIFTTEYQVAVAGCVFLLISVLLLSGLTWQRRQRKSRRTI
# T1 sequence (looked up) 2: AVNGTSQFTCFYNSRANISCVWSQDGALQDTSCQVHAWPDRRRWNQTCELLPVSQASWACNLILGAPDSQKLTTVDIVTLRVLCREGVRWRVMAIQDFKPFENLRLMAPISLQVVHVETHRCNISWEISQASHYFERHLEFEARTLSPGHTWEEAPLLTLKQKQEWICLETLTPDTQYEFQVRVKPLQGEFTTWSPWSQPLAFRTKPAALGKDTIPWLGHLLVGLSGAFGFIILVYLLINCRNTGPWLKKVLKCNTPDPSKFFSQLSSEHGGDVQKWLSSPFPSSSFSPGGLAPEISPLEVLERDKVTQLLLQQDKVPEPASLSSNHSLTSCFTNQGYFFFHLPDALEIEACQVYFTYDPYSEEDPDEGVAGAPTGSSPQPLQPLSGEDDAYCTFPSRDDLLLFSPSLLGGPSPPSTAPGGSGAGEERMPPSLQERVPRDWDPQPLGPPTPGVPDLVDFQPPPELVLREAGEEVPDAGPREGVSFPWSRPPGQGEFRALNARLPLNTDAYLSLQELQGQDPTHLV
# T1 sequence (looked up) 3: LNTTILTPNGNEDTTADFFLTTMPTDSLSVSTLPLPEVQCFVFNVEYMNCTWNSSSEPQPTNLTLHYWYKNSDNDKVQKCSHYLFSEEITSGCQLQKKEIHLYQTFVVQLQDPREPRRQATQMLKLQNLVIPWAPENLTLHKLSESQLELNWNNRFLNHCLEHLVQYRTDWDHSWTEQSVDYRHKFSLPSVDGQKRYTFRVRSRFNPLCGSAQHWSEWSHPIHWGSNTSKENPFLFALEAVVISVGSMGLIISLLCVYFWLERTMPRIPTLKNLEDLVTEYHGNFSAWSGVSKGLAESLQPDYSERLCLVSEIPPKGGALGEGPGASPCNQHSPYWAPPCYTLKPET
# T2: human TIGIT on HEK-Blue reporter cells (human, UniProt Q495A1 22-244)
# T2 sequence (looked up): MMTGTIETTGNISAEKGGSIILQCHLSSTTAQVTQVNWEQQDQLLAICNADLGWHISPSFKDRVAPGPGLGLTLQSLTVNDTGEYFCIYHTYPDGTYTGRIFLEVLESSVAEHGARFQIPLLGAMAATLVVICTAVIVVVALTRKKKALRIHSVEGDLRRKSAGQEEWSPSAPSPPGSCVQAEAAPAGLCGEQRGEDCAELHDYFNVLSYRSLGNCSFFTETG
# B1: IL-12(E59A/F60A)/IL-2(L18R/Q22E/R38D/K43E/E61R/Q126T/S130R)/CD155-Fc (Fc fusion)
# chain 1: WPPPGTGDVVVQAPTQVPGFLGDSVTLPCYLQVPNMEVTHVSQLTWARHGESGSMAVFHQTQGPSYSESKRLEFVAARLGAELRNASLRMFGLRVEDEGNYTCLFVTFPQGSRSVDIWLRVLAKPQNTAEVQKVQLTGEPVPMARCVSTGGRPPAQITWHSDLGGMPNTSQVPGFLSGTVTVTSLWILVPSSQVDGKNVTCKVEHESFEKPQLLTVNLTVYYPPEVSISGYDNNWYLGQNEATLTCDARSNPEPTGYNWSTTMGPLPPFAVAQGAQLLIRPVDKPINTTLICNVTNALGARQAELTVQVKEGPPSEHSGISRNGGGGSGGGIWELKKDVYVVELDWYPDAPGEMVVLTCDTPEEDGITWTLDQSSEVLGSGKTLTIQVKAAGDAGQYTCHKGGEVLSHSLLLLHKKEDGIWSTDILKDQKEPKNKTFLRCEAKNYSGRFTCWWLTTISTDLTFSVKSSRGSSDPQGVTCGAATLSAERVRGDNKEYEYSVECQEDSACPAAEESLPIEVMVDAVHKLKYENYTSSFFIRDIIKPDPPKNLQLKPLKNSRQVEVSWEYPDTWSTPHSYFSLTFCVQVQGKSKREKKDRVFTDKTSATVICRKNASISVRAQDRYYSSSWSEWASVPCSGGGGSGGGSGGGGSRNLPVATPDPGMFPCLHHSQNLLRAVSNMLQKARQTLEFYPCTSEEIDHEDITKDKTSTVEACLPLELTKNESCLNSRETSFITNGSCLASRKTSFMMALCLSSIYEDLKMYQVEFKTMNAKLLMDPKRQIFLDQNMLAVIDELMQALNFNSETVPQKSSLEEPDFYKTKIKLCILLHAFRIRAVTIDRVMSYLNASGGGGSGGGDKTHTCPPCPAPEDEGGPSVFLFPPKPKDTLMISRTPEVTCVVVDVSHEDPEVKFNWYVDGVEVHNAKTKPREEQYNSTYRVVSVLTVLHQDWLNGKEYKCKVSNKALPAPIEKTISKAKGQPREPQVYVYPPSREEMTKNQVSLTCLVKGFYPSDIAVEWESNGQPENNYKTTPPVLDEDGSFALVSKLTVDKSRWQQGNVFSCSVMHEALHNHYTQKSLSLSPGK
# chain 2: WPPPGTGDVVVQAPTQVPGFLGDSVTLPCYLQVPNMEVTHVSQLTWARHGESGSMAVFHQTQGPSYSESKRLEFVAARLGAELRNASLRMFGLRVEDEGNYTCLFVTFPQGSRSVDIWLRVLAKPQNTAEVQKVQLTGEPVPMARCVSTGGRPPAQITWHSDLGGMPNTSQVPGFLSGTVTVTSLWILVPSSQVDGKNVTCKVEHESFEKPQLLTVNLTVYYPPEVSISGYDNNWYLGQNEATLTCDARSNPEPTGYNWSTTMGPLPPFAVAQGAQLLIRPVDKPINTTLICNVTNALGARQAELTVQVKEGPPSEHSGISRNGGGSGAPTSSSTKKTQLQLEHLRLDLEMILNGINNYKNPKLTDMLTFEFYMPKKATELKHLQCLERELKPLEEVLNLAQSKNFHLRPRDLISNINVIVLELKGSETTFMCEYADETATIVEFLNRWITFCTSIIRTLTGGGGSGGGDKTHTCPPCPAPEKKGGPSVFLFPPKPKDTLMISRTPEVTCVVVDVSHEDPEVKFNWYVDGVEVHNAKTKPREEQYNSTYRVVSVLTVLHQDWLNGKEYKCKVSNKALPAPIEKTISKAKGQPREPQVYVLPPSREEMTKNQVSLLCLVKGFYPSDIAVEWESNGQPENRYMTWPPVLDSDGSFFLYSKLTVDKSRWQQGNVFSCSVMHEALHNHYTQKSLSLSPGK
# B2: CD155-Fc/IL-12(E59A/F60A) (IL-12 at C'), printed in Table 21 as IL-12(E59A/F60A)/CD155-Fc (Fc fusion)
# chain 1: WPPPGTGDVVVQAPTQVPGFLGDSVTLPCYLQVPNMEVTHVSQLTWARHGESGSMAVFHQTQGPSYSESKRLEFVAARLGAELRNASLRMFGLRVEDEGNYTCLFVTFPQGSRSVDIWLRVLAKPQNTAEVQKVQLTGEPVPMARCVSTGGRPPAQITWHSDLGGMPNTSQVPGFLSGTVTVTSLWILVPSSQVDGKNVTCKVEHESFEKPQLLTVNLTVYYPPEVSISGYDNNWYLGQNEATLTCDARSNPEPTGYNWSTTMGPLPPFAVAQGAQLLIRPVDKPINTTLICNVTNALGARQAELTVQVKEGPPSEHSGISRNGGGGSGGGDKTHTCPPCPAPEDEGGPSVFLFPPKPKDTLMISRTPEVTCVVVDVSHEDPEVKFNWYVDGVEVHNAKTKPREEQYNSTYRVVSVLTVLHQDWLNGKEYKCKVSNKALPAPIEKTISKAKGQPREPQVYVYPPSREEMTKNQVSLTCLVKGFYPSDIAVEWESNGQPENNYKTTPPVLDEDGSFALVSKLTVDKSRWQQGNVFSCSVMHEALHNHYTQKSLSLSPGKGGGGSGGGIWELKKDVYVVELDWYPDAPGEMVVLTCDTPEEDGITWTLDQSSEVLGSGKTLTIQVKAAGDAGQYTCHKGGEVLSHSLLLLHKKEDGIWSTDILKDQKEPKNKTFLRCEAKNYSGRFTCWWLTTISTDLTFSVKSSRGSSDPQGVTCGAATLSAERVRGDNKEYEYSVECQEDSACPAAEESLPIEVMVDAVHKLKYENYTSSFFIRDIIKPDPPKNLQLKPLKNSRQVEVSWEYPDTWSTPHSYFSLTFCVQVQGKSKREKKDRVFTDKTSATVICRKNASISVRAQDRYYSSSWSEWASVPCSGGGGSGGGSGGGGSRNLPVATPDPGMFPCLHHSQNLLRAVSNMLQKARQTLEFYPCTSEEIDHEDITKDKTSTVEACLPLELTKNESCLNSRETSFITNGSCLASRKTSFMMALCLSSIYEDLKMYQVEFKTMNAKLLMDPKRQIFLDQNMLAVIDELMQALNFNSETVPQKSSLEEPDFYKTKIKLCILLHAFRIRAVTIDRVMSYLNAS
# chain 2: WPPPGTGDVVVQAPTQVPGFLGDSVTLPCYLQVPNMEVTHVSQLTWARHGESGSMAVFHQTQGPSYSESKRLEFVAARLGAELRNASLRMFGLRVEDEGNYTCLFVTFPQGSRSVDIWLRVLAKPQNTAEVQKVQLTGEPVPMARCVSTGGRPPAQITWHSDLGGMPNTSQVPGFLSGTVTVTSLWILVPSSQVDGKNVTCKVEHESFEKPQLLTVNLTVYYPPEVSISGYDNNWYLGQNEATLTCDARSNPEPTGYNWSTTMGPLPPFAVAQGAQLLIRPVDKPINTTLICNVTNALGARQAELTVQVKEGPPSEHSGISRNGGGGSGGGDKTHTCPPCPAPEKKGGPSVFLFPPKPKDTLMISRTPEVTCVVVDVSHEDPEVKFNWYVDGVEVHNAKTKPREEQYNSTYRVVSVLTVLHQDWLNGKEYKCKVSNKALPAPIEKTISKAKGQPREPQVYVLPPSREEMTKNQVSLLCLVKGFYPSDIAVEWESNGQPENRYMTWPPVLDSDGSFFLYSKLTVDKSRWQQGNVFSCSVMHEALHNHYTQKSLSLSPGK
# B3: IL-2(L18R/Q22E/R38D/K43E/E61R)/CD155-Fc/IL-12(E59A/F60A) (Fc fusion)
# chain 1: B2 chain 1
# chain 2: B1 chain 2 with T454Q, R458S
# B4: IL-2(R38D/K43E/E61R/Q126T)/CD155-Fc/IL-12(E59A/F60A) (Fc fusion)
# chain 1: B2 chain 1
# chain 2: B1 chain 2 with R346L, E350Q, R458S
# B5: IL-2(L18R/Q22E/R38D/K43E/E61R/Q126T)/CD155-Fc/IL-12(E59A/F60A) (Fc fusion)
# chain 1: B2 chain 1
# chain 2: B1 chain 2 with R458S
# Target: T1, human IL-2 receptor (IL-2Rα, IL-2Rβ, …)
# Assay: cell-based or functional assay
row,Binder,"IL-2 signal transduction, HEK-IL-2 [%]"
1,B1,< 0.1
2,B2,< 0.1
3,B3,15
4,B4,3
5,B5,5

# Target: T2, human TIGIT on HEK-Blue reporter cells
# Assay: cell-based or functional assay
Binder,"IL-2 signal transduction, HEK-IL-2-TIGIT [%]","IL-12 signal transduction, HEK-IL-12-TIGIT [%]"
B1,< 0.1,15
B2,< 0.1,35
B3,81,42
B4,28,32
B5,18,29

# Target: human IL-12 receptor complex (IL-12Rβ1 and IL-12Rβ2) (human, UniProt P42701 24-662; Q99665 24-862)
# Sequence (Q99665 24-862, chain 2 of 2, other chains not shown): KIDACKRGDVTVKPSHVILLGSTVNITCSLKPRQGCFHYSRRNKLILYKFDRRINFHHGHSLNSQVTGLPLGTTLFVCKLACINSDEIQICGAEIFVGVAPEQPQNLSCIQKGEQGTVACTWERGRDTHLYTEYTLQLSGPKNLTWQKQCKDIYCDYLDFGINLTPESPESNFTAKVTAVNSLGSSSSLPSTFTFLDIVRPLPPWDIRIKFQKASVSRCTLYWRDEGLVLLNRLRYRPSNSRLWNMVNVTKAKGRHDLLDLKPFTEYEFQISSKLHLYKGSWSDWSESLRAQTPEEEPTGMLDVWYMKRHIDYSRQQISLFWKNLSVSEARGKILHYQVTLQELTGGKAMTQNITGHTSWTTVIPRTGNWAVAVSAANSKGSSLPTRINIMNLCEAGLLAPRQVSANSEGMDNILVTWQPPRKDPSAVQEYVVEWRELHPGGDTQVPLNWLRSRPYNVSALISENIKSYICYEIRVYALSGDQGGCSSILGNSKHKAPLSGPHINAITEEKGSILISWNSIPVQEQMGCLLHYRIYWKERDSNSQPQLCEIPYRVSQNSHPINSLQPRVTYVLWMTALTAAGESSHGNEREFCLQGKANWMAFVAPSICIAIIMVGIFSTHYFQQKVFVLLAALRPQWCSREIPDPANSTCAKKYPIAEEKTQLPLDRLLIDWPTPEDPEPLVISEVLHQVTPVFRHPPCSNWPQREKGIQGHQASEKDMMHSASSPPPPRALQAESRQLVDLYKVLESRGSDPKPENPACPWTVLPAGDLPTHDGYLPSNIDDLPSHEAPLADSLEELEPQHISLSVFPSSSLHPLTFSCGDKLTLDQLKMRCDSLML
# Assay: cell-based or functional assay
row,Binder,"IL-12 signal transduction, HEK-IL-12 [%]"
1,B1,< 0.2
2,B2,2
3,B3,1
4,B4,2
5,B5,< 0.2

# — patent publication US20240392004A1 (IMMUNOWAKE, published 2024)
